Experimental data published in paper PMC3286859.

What was measured:
[1] = target: recombinant Drosophila cathepsin B (Drosophila); assay: enzyme inhibition assay
[2] = target: Drosophila cathepsin L purified from fly head extracts (Drosophila melanogaster (endogenous in fly heads)); assay: enzyme inhibition assay
[3] = system: Cc1cc(=O)oc2cc(NC(=O)[C@H](CCCNC(=N)N)NC(=O)[C@H](Cc3ccccc3)NC(=O)OCc3ccccc3)ccc12; assay: purified protein; settings: 100 mM sodium acetate pH 5.0, 1 mM EDTA, 2 mM DTT, no crammer added

Substance | Ki [1] [nM] | Ki [2] [nM] | Km [3] [µM]
crammer Y20A (natural protein) | 5400 | – | –
Drosophila melanogaster crammer, recombinant wild type (monomer) (natural protein) | 790 | 1.36 | –
Drosophila cathepsin L (Drosophila melanogaster) | – | – | 3.85

Further substances by falling Ki [1], results first:

Ki [1] [nM] | Ki [2] [nM] | Substance | Km [3] [µM]
18900 | – | crammer Y12A (natural protein) | –
2260 | – | crammer F16A (natural protein) | –
1870 | – | crammer C72S (natural protein) | –
